Measurements taken from the supplement of paper PMC9170038.

System: MS2 coat protein
Test: apparent KD of MS2 coat protein; designed switch direction (-1 OFF switch, 1 ON switch): 1; higher = weaker reporter binding
Method in brief: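 The reported apparent KD is a per-design median over clusters, from curve fits of normalised cluster fluorescence. Protein titrations used SNAP-549-labelled MS2 coat protein, doubled from 0.7 or 1.5 nM to 3 µM, in Tris-HCl pH 7.5 buffer with KCl, MgCl2, BSA, DTT, tRNA and Tween-20, with no input, 200 uM small-molecule ligand, or an oligonucleotide input. The RNA switches were transcribed on Illumina chips by stalled E. coli RNA polymerase.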

[1] = input ligand: microRNA oligo, concentration not stated
[2] = Eterna round: R95, input ligand: FMN 200 uM
[3] = Eterna round: R95, input ligand: microRNA oligo, concentration not stated
[4] = Eterna round: R95, input ligand: none

| Sequence | apparent KD of MS2 coat protein [1] | apparent KD of MS2 coat protein [2] | apparent KD of MS2 coat protein [3] | apparent KD of MS2 coat protein [4] | apparent KD of MS2 coat protein (input ligand: FMN 200 uM) | apparent KD of MS2 coat protein (input ligand: none) |
| --- | --- | --- | --- | --- | --- | --- |
| UAUCAUUACACGAAGGAUAUCGAUAAUUGAACAUGAGGAUCACCCAUGUGAUAUAUUUUACAGUUCGAGAAGGUCGAGGGUGAAG [JR_SS002_Sub705] (Eterna round: R96, puzzle: Same State 2) | 28.5 nM | – | – | – | – | – |
| AUUUAAUUUACUCAGGAUAUGCAUAGAUAAACAUGAGGAUCACCCAUGUAAUUAUUUUUUAAUAAGUAGAAGGGAGAUUUUUAUU [splinter_arm[switch]] (puzzle: Same State 2) | – | 54.9 nM | 65.4 nM | 147 nM | – | – |
| UUGAAGAACUAAGGAUAUUGAAUACAUAUGUUUAACAUGAGGAUCACCCAUGUGGGUUGCGGUAUCGAGAAGGUAGAUUACUAG [Mat - Same State NG 2 - JL mod - D10] (Eterna round: R96, puzzle: Same State NG 2) | 83.4 nM | – | – | – | – | – |
| GAGUAGUUGAAAGGAUAUCCAUUGUUAUAGAAUGGAGAAGGUUCUAACAUGAGGAUCACCCAUGUAGGACUAUUCCUGUGUAUC [Parity 81 - Jieux - Same State NG 1] (Eterna round: R96, puzzle: Same State NG 1) | 8.16 nM | – | – | – | 9.98 nM | 11.9 nM |
| AUAAGGCAAGCUUUUUUCUCGUAGUGUAAACAUGAGGAUCACCCAUGUGCCCACCCUAGAUCUUUGGAUCGCAGAAC [Atrageus] (puzzle: Sensor for hsa-mir-208a) | – | 22.8 nM | 16.8 nM | 26.8 nM | – | – |
| CUGUAUCGCGGAGGAUAUGGGCUGAGACCAGGGCAACCCUGGUCAACAUGAGGAUCACCCAUGUCCCAGAAGGCCGCAAUGCUA [Esatanla] (Eterna round: R96, puzzle: Same State NG 2) | 128 nM | – | – | – | 34.7 nM | 137 nM |
| CCAUGGUAACAUGAGGAUCACCCAUGUACAAGCUUUUUGCUCGGUUUUAUCCCGGGCCCGGAUUACACGGGCCCGGG [Initial Design] (puzzle: Sensor for hsa-mir-208a version 2) | – | 41.4 nM | 50.7 nM | 33.6 nM | – | – |
| GACAGACAUGAGGAUCACCCAUGUACAAACGUACAAGGAUAUGUGUGGAAACCGUACUAUACAGAAGGUGUCUGUC [SS1 - 90] (Eterna round: R96, puzzle: Same State 1) | 71.3 nM | – | – | – | – | – |
| GGUAGGUUACUACCAAUCUACAUGAGGAUCACCCAUGUGUAGGAGGAUAUGGUACCUAUUUGGUACCAGAAGGCCUUAUUAAUU [Fiskers NG3ss - 10] (Eterna round: R96, puzzle: Same State NG 3) | 81.8 nM | – | – | – | 143 nM | 98.8 nM |
| AUAAGAAACACAGGAUAUACCGUGCUUAACGCGGUAGAAGGGUGGGACAUGAGGAUCACCCAUGUGGUCCGGGCGCCGGACCGC [Erarlaa] (Eterna round: R96, puzzle: Same State NG 1) | 296 nM | – | – | – | 934 nM | 309 nM |
| GGAAUAUUUACAGGAUAUGAUUUGUAAAUUCGAUCAGAAGGGUAGAUGUCUUACACGGUUUGUUACAUGAGGAUCACCCAUGUU [SameState NG1 #11] (Eterna round: R96, puzzle: Same State NG 1) | 109 nM | – | – | – | – | – |
| GGAUGAUUAAUAGGAUAUUAUUUGUAAAUUGGUUAAGAAGGAUUAAUGAUUUAAACGACCUGUUACAUGAGGAUCACCCAUGUU [JR_SSNG1_Sub090] (Eterna round: R96, puzzle: Same State NG 1) | 33.2 nM | – | – | – | – | – |
| GGAGCCGACACCGAGGAUAUUCAUAUUAAAACAUGAGGAUCACCCAUGUAGGCCAGAAGGCCUUGGGAGAAGGCGGAUCGGCUCG [Xeonanis - 8] (puzzle: Same State 2) | – | 21.2 nM | 240 nM | 301 nM | – | – |
| AAUUAAUUAAUUAAUAUACAUGAGGAUCACCCAUGUAAGAUCAAGGAUAUCAGCUCGUUUAGAGCUGAGAAGGUGAUCACAUGU [SSNG3/16-A3] (Eterna round: R96, puzzle: Same State NG 3) | 156 nM | – | – | – | 447 nM | 302 nM |
| AGGUACAACGGAGGAUAUAAUAGUCUAUAGACGUUAGAAGGCCGGGCCUUCACAUGAGGAUCACCCAUGUCUCUGGAGGCGCCU [Eternabot solution 11] (Eterna round: R96, puzzle: Same State NG 1) | 16.8 nM | – | – | – | – | – |
| AGCGAGAUAGGCAAGGAUAUGCUGAGGUGCACAUGAGGAUCACCCAUGUCAGUGGCGAAAGCGAAGCAGAAGGUGCAUUCUCUUU [ak fifth] (puzzle: Same State 2) | – | 27.1 nM | 190 nM | 332 nM | – | – |
| AUAAGGCAAGCUUUUUUCUCGUAGUAUAAACAUGAGGAUCACCCAUGUGCCCACCCUGGAUCUUUGGAUCGCAGAAC [Vetera] (puzzle: Sensor for hsa-mir-208a) | – | 26.8 nM | 16.5 nM | 26.3 nM | – | – |
| CCCUGAGGUAACCUACAGGGACAUGAGGAUCACCCAUGUACACAGGAUAUCGAAGGCUCCGCCCUCGAGAAGGGUGAUCAAACU [Leuslein] (Eterna round: R96, puzzle: Same State NG 3) | 266 nM | – | – | – | 1520 nM | 109 nM |
| ACUUGCUUUUUGCUCGUAUAUUGUCCAUUACAUGAGGAUCACCCAUGUGUGUAUUGUGUAUUGUUUUUGAUACGUGC [JR_SHM208A_Sub071] (puzzle: Sensor for hsa-mir-208a) | – | 243 nM | 24.4 nM | 302 nM | – | – |
| GGAGCCAAGGCAGGAUAUUCAUAUUAAUAACAUGAGGAUCACCCAUGUAAGGCCAGAAGGCCUUGGGAGAAGGGCCAUGGCUCG [Xeonanis - 13 mod2] (Eterna round: R96, puzzle: Same State NG 2) | 70.4 nM | – | – | – | 21.4 nM | 106 nM |
| GGUAGGUUACUACCAACACAUGAGGAUCACCCAUGUUAGUGGGAGGAUAUGGUACCUAUUUGGUACCAGAAGGUCCAGUUAAUU [Fiskers NG3ss - 15] (Eterna round: R96, puzzle: Same State NG 3) | 161 nM | – | – | – | 131 nM | 435 nM |
| AGAUCAUGACGAGGAUAUCCGACAUGAGGAUCACCCAUGUAUGUUGGAGGACGCGUACGUCCAAUGGAGAAGGCGUCGUGGUCA [JL SSNG2 1.04] (Eterna round: R96, puzzle: Same State NG 2) | 11.8 nM | – | – | – | 13.6 nM | 14.9 nM |
| AUGCCAAAAUGAGGAUAUGGAGCCUUAUUGGCUCCAGAAGGCGUGACAUGAGGAUCACCCAUGUGGCAGUGGUCUAAUGACCAC [Eli NG1ss - 44] (Eterna round: R96, puzzle: Same State NG 1) | 53.3 nM | – | – | – | 21.9 nM | 77 nM |
| UGACACACGGCAGGAUAUCGAUAGCAAAGCUAUCGAGAAGGGCCUCAUGUCGUGGAAACGUGACAUGAGGAUCACCCAUGUUGC [Omei SS(NG)1 Cv11] (Eterna round: R96, puzzle: Same State NG 1) | 8.42 nM | – | – | – | 280 nM | 51.4 nM |
